Target: the molecule itself
Assay: western blot after SDS-PAGE of partially denatured samples

B1: murine MLC1 (natural protein, mouse (endogenous in C57BL/6J brain), UniProt Q8VHK5 1-382, looked up)
chain: MTREGQFREELGYDRMPTLERGRQDAGRQDPGSYTPDSKPKDLQLSKRLPPCFSYKTWVFSVLMGSCLLVTSGFSLYLGNVFPSEMDYLRCAAGSCIPSAIVSFAVGRRNVSAIPNFQILFVSTFAVTTTCLIWFGCKLILNPSAININFNLILLLLLELLMAATVIISARSSEEPCKKKKGSISDGSNILDEVTFPARVLKSYSVVEVIAGVSAVLGGVIALNVEEAVSGPHLSVTFFWILVACFPSAIASHVTAECPSKCLVEVLIAISSLTSPLLFTASGYLSFSVMRVVEIFKDYPPAIKSYDVLLLLLLLLLLLQGGLNTGTAIQCVSFKVSARLQAASWDPQSCPQERPAGEVVRGPLKEFDKEKAWRAVVVQMAQ
  stoichiometry N: 2
